Measured values as given in paper PMC8034659.

Columns and labels:
Test in all cases: SPR
[1] = target: T1, TrfA T105E (plasmid RK2, UniProt P07676 98-382, T105E;G254D;S267L)
T1 sequence: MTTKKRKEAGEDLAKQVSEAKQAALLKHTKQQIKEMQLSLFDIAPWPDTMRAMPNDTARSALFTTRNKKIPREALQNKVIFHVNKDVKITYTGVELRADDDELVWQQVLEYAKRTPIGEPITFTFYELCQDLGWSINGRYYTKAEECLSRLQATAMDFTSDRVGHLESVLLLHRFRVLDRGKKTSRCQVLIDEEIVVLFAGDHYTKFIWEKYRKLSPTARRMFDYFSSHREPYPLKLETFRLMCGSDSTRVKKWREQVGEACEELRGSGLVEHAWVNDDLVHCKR

[2] = target: T2, TrfA P151S/E361K (plasmid RK2, UniProt P07676 98-382, P151S;G254D;S267L;E361K)
T2 sequence: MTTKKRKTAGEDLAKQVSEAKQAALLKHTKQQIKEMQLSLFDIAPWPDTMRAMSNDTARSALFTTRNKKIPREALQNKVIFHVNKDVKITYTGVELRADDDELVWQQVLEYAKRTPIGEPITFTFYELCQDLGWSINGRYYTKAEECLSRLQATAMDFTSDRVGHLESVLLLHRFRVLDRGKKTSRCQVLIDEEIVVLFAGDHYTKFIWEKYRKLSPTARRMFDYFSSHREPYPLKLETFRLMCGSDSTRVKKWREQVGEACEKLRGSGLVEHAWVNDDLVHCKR

[3] = target: T3, TrfA P168E (plasmid RK2, UniProt P07676 98-382, P168E;G254D;S267L)
T3 sequence: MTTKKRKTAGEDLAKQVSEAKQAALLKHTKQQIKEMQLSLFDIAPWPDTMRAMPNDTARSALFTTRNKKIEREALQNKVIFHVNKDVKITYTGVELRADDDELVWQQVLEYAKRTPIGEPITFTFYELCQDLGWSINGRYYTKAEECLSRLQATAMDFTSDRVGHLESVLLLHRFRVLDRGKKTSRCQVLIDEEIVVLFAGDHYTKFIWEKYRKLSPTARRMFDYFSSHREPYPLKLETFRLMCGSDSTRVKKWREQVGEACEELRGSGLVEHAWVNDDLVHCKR

[4] = target: T4, TrfA A171T (plasmid RK2, UniProt P07676 98-382, A171T;G254D;S267L)
T4 sequence: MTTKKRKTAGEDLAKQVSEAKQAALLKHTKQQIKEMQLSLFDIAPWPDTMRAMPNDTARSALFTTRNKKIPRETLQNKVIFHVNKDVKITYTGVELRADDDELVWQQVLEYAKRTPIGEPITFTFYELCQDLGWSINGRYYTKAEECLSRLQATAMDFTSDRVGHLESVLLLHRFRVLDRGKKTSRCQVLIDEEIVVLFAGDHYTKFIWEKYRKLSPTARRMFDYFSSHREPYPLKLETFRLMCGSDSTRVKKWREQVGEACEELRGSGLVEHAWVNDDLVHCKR

Measured: binding result

B1: five RK2 iterons (ItT/ItB) (dsDNA)
DNA 1: CCTGCGGTATTGACACTTGAGGGGCGCGACTACTGACAGATGAGGGGCGCGATCCTTGACACTTGAGGGGCAGAGTGATGACAGATGAGGGGCGCACCTATTGACATTTGAGGGGCTGTCCACAGGCAG
DNA 2: CTGCCTGTGGACAGCCCCTCAAATGTCAATAGGTGCGCCCCTCATCTGTCATCACTCTGCCCCTCAAGTGTCAAGGATCGCGCCCCTCATCTGTCAGTAGTCGCGCCCCTCAAGTGTCAATACCGCAGG
binds: all assays above
